The values that follow come from patent US20220324953A1 (JIANGSU HENGRUI MEDICINE, published 2022).

The term EC50 denotes the midpoint of the concentration-response curve. A low value points to a more potent agent.

The target in test [1] is T1, human CTGF (antigen of the Biacore assays) (human, UniProt P29279 27-349).
T1 construct: also called antigen human CTGF; human CTGF protein
T1 sequence (looked up): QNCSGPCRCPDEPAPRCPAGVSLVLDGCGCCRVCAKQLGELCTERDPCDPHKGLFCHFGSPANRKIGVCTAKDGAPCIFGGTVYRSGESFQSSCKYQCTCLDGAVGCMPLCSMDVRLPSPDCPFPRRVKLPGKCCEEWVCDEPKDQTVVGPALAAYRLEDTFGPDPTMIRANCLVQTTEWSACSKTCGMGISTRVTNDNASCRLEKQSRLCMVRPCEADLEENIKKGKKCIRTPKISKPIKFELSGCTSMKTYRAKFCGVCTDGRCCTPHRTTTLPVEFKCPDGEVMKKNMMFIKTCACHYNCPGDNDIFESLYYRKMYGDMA
Nature of the test: Biacore, CTGF immobilised, antibody 150 µg/ml then 50 nM TGF-β1 (competitor TGF-β1). As to the method: First, the antigen human CTGF was immobilized onto a CMS biosensor chip (Cat. # BR-1005-30, GE) by amino coupling, with an immobilization level of 1500 RU, and then a high concentration of CTGF antibody (150 μg/ml) was allowed to flow through the surface of the chip for 150 s; 50 nM TGF-β1 protein was injected for 120 s, and the reaction signals were detected in real time with the Biacore T200 instrument to generate a binding and dissociation curve. After the dissociation was completed in each of the experimental cycles, the biosensor chip was washed and regenerated with regeneration buffer.
The resulting experimental data were statistically analyzed with GE Biacore T200 Evaluation version 3.0 software.

Test [2] addresses T2, Mouse CTGF protein-His tag (mouse, UniProt P29268 26-348).
T2 construct: C-terminal His tag; also called mouse CTGF-his protein; mouse CTGF fusion protein
T2 sequence: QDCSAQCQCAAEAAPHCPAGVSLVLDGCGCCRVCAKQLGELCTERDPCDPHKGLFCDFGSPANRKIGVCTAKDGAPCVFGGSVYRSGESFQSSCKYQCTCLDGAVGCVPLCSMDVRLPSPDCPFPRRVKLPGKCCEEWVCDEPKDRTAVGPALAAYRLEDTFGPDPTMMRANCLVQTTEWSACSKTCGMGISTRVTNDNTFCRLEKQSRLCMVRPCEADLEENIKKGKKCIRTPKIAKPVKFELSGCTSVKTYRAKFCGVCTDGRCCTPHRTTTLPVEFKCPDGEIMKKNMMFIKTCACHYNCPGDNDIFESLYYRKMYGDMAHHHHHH
Nature of the test: ELISA, plate coated with mouse CTGF-his. The protocol:
The binding activity of anti-mouse CTGF antibody to mouse CTGF protein was tested by ELISA assay. A 96-well microtiter plate was directly coated with the mouse CTGF fusion protein. The signal strength upon the addition of the antibody was used to determine the binding activity of the antibody to mouse CTGF. The specific experimental procedures were as follows:
The mouse CTGF-his protein was diluted with PBS, pH 7.4 (Shanghai Yuanpei, Cat No. B320) buffer to a concentration of 0.5 μg/ml, added into the 96-well microtiter plate (Corning, Cat No. CLS3590-100EA) at 50 μl/well, and incubated in an incubator at 37° C. for 2 hours. The liquid was removed, 250 μl/well blocking solution (5% skim milk (BD skim milk, Cat No. 232100) diluted in PBS) was added, and incubated in an incubator at 37° C. for 3 hours or at 4° C. overnight (16-18 hours) for blocking. After the blocking was finished, the blocking solution was removed, the plate was washed for 3 times with PBST buffer (PBS containing 0.1% Tween-20, pH 7.4), 50 μl/well of various concentrations of each of the test antibodies (antibodies purified from hybridoma or humanized antibodies) diluted with sample dilution solution were added, and incubated in an incubator at 37° C. for 1 hours. After the incubation was finished, the plate was washed for 3 times with PBST, 50 μl/well of HRP-labeled goat anti-mouse secondary antibody (Jackson Immuno Research, Cat No. 115-035-003) or goat anti-human secondary antibody (Jackson Immuno Research, Cat No. 109-035-003) diluted with sample dilution solution was added, and incubated at 37° C. for 1 hour. The plate was washed for 5 times with PBST, 50 μl/well of TMB chromogenic substrate (KPL, Cat No. 52-00-03) was added, incubated at room temperature for 5-10min, and 50 μl/well of 1 M H₂SO₄ was added to stop the reaction. The absorbance value was read by a microplate reader (Molecular Devices, VERSA max) at a wavelength of 450 nm, and the data was analyzed with GraphPad Prism 5. The binding of CTGF antibody to mouse CTGF protein was calculated as EC50 value.
Background: An ELISA detects its analyte on a solid surface through an enzyme-linked reagent.

B1: Hu147-22wk (antibody, human IgG1, kappa, V domains shown)
VH: EVQLVESGGGLVQPGGSLRLSCAASGFTFNTYAMNWVRQAPGKGLEWVARIRTKSNNYATYYADSVKDRFTISRDDSKNSLYLQMNSLKTEDTAVYYCVETGFAYWDQGTLVTVSS
VL: EIVLTQSPATLSLSPGERATLSCSASSSVSYMHWFQQKPGQSPKLLIYSTSNLASGIPARFSGSGSGTDYTLTISSLEPEDFAVYYCQQRSSYPLTFGQGTKLEIKR
Regarding B1, in test [1], the “Function-blocking percentage (%)” value came out at 52.3%. In test [2], the response was half-maximal at 0.336 nM (EC50).

B2: Hu147-21wk (antibody, human IgG1, kappa, V domains shown)
VH: EVQLVESGGGLVQPGGSLRLSCAASGFTFNTYAMNWVRQAPGKGLEWVARIRTKSNNYATYYADSVKDRFTISRDDSKNSLYLQMNSLKTEDTAVYYCVETGFAYWDQGTLVTVSS
VL: EIVLTQSPATLSLSPGERATLSCSASSSVSYMHWFQQKPGQSPRLLIYSTSNLASGIPARFSGSGSGTDYTLTISSLEPEDFAVYYCQQRSSYPLTFGQGTKLEIKR
With B2, the “Function-blocking percentage (%)” value in test [1] was found to be 51.6%. Also, the EC50 in test [2] stood at 0.247 nM.

B3: Hu147-32wk (antibody, human IgG1, kappa, V domains shown)
VH: EVQLVESGGGLVQPGGSLRLSCAASGFSFNTYAMNWVRQAPGKGLEWVARIRTKSNNYATYYADSVKDRFTISRDDSESSLYLQMNSLKTEDTAVYYCVETGFAYWDQGTLVTVSS
VL: EIVLTQSPATLSLSPGERATLSCSASSSVSYMHWFQQKPGQSPKLLIYSTSNLASGIPARFSGSGSGTDYTLTISSLEPEDFAVYYCQQRSSYPLTFGQGTKLEIKR
On to B3, for which the “Function-blocking percentage (%)” value in test [1] is 55.2%. For the same molecule, in test [2], the midpoint of the response, the EC50, lay at 0.349 nM.

B4: Hu147-23wk (antibody, human IgG1, kappa, V domains shown)
VH: EVQLVESGGGLVQPGGSLRLSCAASGFTFNTYAMNWVRQAPGKGLEWVARIRTKSNNYATYYADSVKDRFTISRDDSKNSLYLQMNSLKTEDTAVYYCVETGFAYWDQGTLVTVSS
VL: EIVLTQSPATLSLSPGERATLSCSASSSVSYMHWFQQKPGQSPKLWIYSTSNLASGVPARFSGSGSGTDYTLTISSLEPEDFAVYYCQQRSSYPLTFGQGTKLEIKR
Take B4: the “Function-blocking percentage (%)” value in test [1] came out at 54.6%. The molecule further gave an EC50 in test [2] of 0.2 nM.

B5: Hu147-13wk (antibody, human IgG1, kappa, V domains shown)
VH: EVQLVESGGGLVQPGGSLRLSCAASGFTFSTYAMNWVRQAPGKGLEWVGRIRTKSNNYATYYADSVKDRFTISRDDSKNSLYLQMNSLKTEDTAVYYCVETGFAYWDQGTLVTVSS
VL: EIVLTQSPATLSLSPGERATLSCSASSSVSYMHWFQQKPGQSPKLWIYSTSNLASGVPARFSGSGSGTDYTLTISSLEPEDFAVYYCQQRSSYPLTFGQGTKLEIKR
As for B5, in test [1], the “Function-blocking percentage (%)” value was 53.3%. In test [2], this molecule came in with an EC50 of 0.127 nM.

B6: Hu147-11wk (antibody, human IgG1, kappa, V domains shown)
VH: EVQLVESGGGLVQPGGSLRLSCAASGFTFSTYAMNWVRQAPGKGLEWVGRIRTKSNNYATYYADSVKDRFTISRDDSKNSLYLQMNSLKTEDTAVYYCVETGFAYWDQGTLVTVSS
VL: EIVLTQSPATLSLSPGERATLSCSASSSVSYMHWFQQKPGQSPRLLIYSTSNLASGIPARFSGSGSGTDYTLTISSLEPEDFAVYYCQQRSSYPLTFGQGTKLEIKR
As for B6, the “Function-blocking percentage (%)” value in test [1] was found to be 50.8%. This molecule also displayed an EC50 in test [2] of 0.228 nM.

B7: Hu147-31wk (antibody, human IgG1, kappa, V domains shown)
VH: EVQLVESGGGLVQPGGSLRLSCAASGFSFNTYAMNWVRQAPGKGLEWVARIRTKSNNYATYYADSVKDRFTISRDDSESSLYLQMNSLKTEDTAVYYCVETGFAYWDQGTLVTVSS
VL: EIVLTQSPATLSLSPGERATLSCSASSSVSYMHWFQQKPGQSPRLLIYSTSNLASGIPARFSGSGSGTDYTLTISSLEPEDFAVYYCQQRSSYPLTFGQGTKLEIKR
Turning to B7, in test [1], the “Function-blocking percentage (%)” value stood at 55%. In addition, a half-maximal effect in test [2] (EC50) was put at 0.32 nM.

B8: Hu147-33wk (antibody, human IgG1, kappa, V domains shown)
VH: EVQLVESGGGLVQPGGSLRLSCAASGFSFNTYAMNWVRQAPGKGLEWVARIRTKSNNYATYYADSVKDRFTISRDDSESSLYLQMNSLKTEDTAVYYCVETGFAYWDQGTLVTVSS
VL: EIVLTQSPATLSLSPGERATLSCSASSSVSYMHWFQQKPGQSPKLWIYSTSNLASGVPARFSGSGSGTDYTLTISSLEPEDFAVYYCQQRSSYPLTFGQGTKLEIKR
With B8, the “Function-blocking percentage (%)” value in test [1] was found to be 57.3%. For the same molecule, in test [2], the EC50 is 0.258 nM.

B9: positive control CTGF antibody mAb1 (antibody, V domains shown)
VH: EGQLVQSGGGLVHPGGSLRLSCAGSGFTFSSYGMHWVRQAPGKGLEWVSGIGTGGGTYSTDSVKGRFTISRDNAKNSLYLQMNSLRAEDMAVYYCARGDYYGSGSFFDCWGQGTLVTVSS
VL: DIQMTQSPSSLSASVGDRVTITCRASQGISSWLAWYQQKPEKAPKSLIYAASSLQSGVPSRFSGSGSGTDFTLTISSLQPEDFATYYCQQYNSYPPTFGQGTKLEIKR
notes: Positive control, from CN1829740B; also called pamrevlumab; FG-3019
Consider B9, for which, in test [1], the “Function-blocking percentage (%)” value was 41.3%. In test [2], this molecule yielded a half-maximal effective concentration (EC50) of 0.077 nM.

B10: Hu164-68wl (antibody, human IgG1, lambda, V domains shown)
VH: EVTLKESGPVLVKPTETLTLTCTVSGFSLSTFGVHWIRQPPGKGLEWLGVIWRRGGTDYNAAFMSRLTISKDTSKSQVVFTMTNMDPVDTATYYCARDGGFDYWGQGTTVTVSS
VL: ETVVTQEPSFSVSPGGTVTLTCRSSIGAVTTSNYANWVQQTPGQAFRGLIGGTSNRAPGVPDRFSGSILGNKAALTITGAQADDESDYYCALWYSTHYVFGGGTKLTVLG
In test [2], B10 displayed an EC50 of 0.065 nM.

B11: Hu164-69wl (antibody, human IgG1, lambda, V domains shown)
VH: EVTLKESGPVLVKPTETLTLTCTVSGFSLSTFGVHWIRQPPGKGLEWLGVIWRRGGTDYNAAFMSRLTISKDTSKSQVVFTMTNMDPVDTATYYCARDGGFDYWGQGTTVTVSS
VL: ESVVTQPPSVSGAPGQRVTISCRSSIGAVTTSNYANWVQQLPGTAFKGLIGGTSNRAPGVPDRFSGSKSGTSASLAITGLQAEDEADYYCALWYSTHYVFGGGTKLTVLG
For the molecule B11, the EC50 in test [2] amounted to 0.059 nM.

B12: Hu164-77wl (antibody, human IgG1, lambda, V domains shown)
VH: EVQLQESGPGLVKPSQTLSLTCTVSGFSISTFGVHWIRQHPGKGLEWIGVIWRRGGTDYNAAFMSRVTISKDTSKNQVSLKLSSVTAADTAVYYCARDGGFDYWGQGTTVTVSS
VL: ETVVTQEPSLTVSPGGTVTLTCRSSIGAVTTSNYANWVQQKPGQAFRGLIGGTSNRAPWTPARFSGSLLGGKAALTLSGVQPEDEAEYYCALWYSTHYVFGGGTKLTVLG
In turn, B12 came in with an EC50 in test [2] of 0.058 nM.

B13: Hu164-87wl (antibody, human IgG1, lambda, V domains shown)
VH: EVQLQESGPGLVKPSQTLSLTCTVSGFSISTFGVHWIRQHPGKGLEWLGVIWRRGGTDYNAAFMSRLTISKDTSKNQVSFKLSSVTAADTAVYYCARDGGFDYWGQGTTVTVSS
VL: ETVVTQEPSLTVSPGGTVTLTCRSSIGAVTTSNYANWVQQKPGQAFRGLIGGTSNRAPWTPARFSGSLLGGKAALTLSGVQPEDEAEYYCALWYSTHYVFGGGTKLTVLG
The molecule B13 registered an EC50 in test [2] of 0.067 nM.

B14: Hu164-57wl (antibody, human IgG1, lambda, V domains shown)
VH: EVTLKESGPVLVKPTETLTLTCTVSGFSLSTFGVHWIRQPPGKALEWLAVIWRRGGTDYNAAFMSRLTISKDTSKSQVVLTMTNMDPVDTATYYCARDGGFDYWGQGTTVTVSS
VL: ETVVTQEPSLTVSPGGTVTLTCRSSIGAVTTSNYANWVQQKPGQAFRGLIGGTSNRAPWTPARFSGSLLGGKAALTLSGVQPEDEAEYYCALWYSTHYVFGGGTKLTVLG
In test [2], B14 had a 50% effective concentration (EC50) of 0.041 nM.
